Source: US20250114463A1, “LIVER-TARGETED DRUG AND USE THEREOF” (HANMI PHARM. CO., LTD., priority 2021, published 2025)
Substitutions are numbered along the chain they refer to. Bridges are numbered along the chain shown (N, C = ends). Where no end group is shown, it is not given here. [ ]: non-standard residue; d: D form. Aib = CC(C)(N)C(=O)O

T1: human GIP receptor (human, UniProt P48546 22-466)
T1 sequence (looked up): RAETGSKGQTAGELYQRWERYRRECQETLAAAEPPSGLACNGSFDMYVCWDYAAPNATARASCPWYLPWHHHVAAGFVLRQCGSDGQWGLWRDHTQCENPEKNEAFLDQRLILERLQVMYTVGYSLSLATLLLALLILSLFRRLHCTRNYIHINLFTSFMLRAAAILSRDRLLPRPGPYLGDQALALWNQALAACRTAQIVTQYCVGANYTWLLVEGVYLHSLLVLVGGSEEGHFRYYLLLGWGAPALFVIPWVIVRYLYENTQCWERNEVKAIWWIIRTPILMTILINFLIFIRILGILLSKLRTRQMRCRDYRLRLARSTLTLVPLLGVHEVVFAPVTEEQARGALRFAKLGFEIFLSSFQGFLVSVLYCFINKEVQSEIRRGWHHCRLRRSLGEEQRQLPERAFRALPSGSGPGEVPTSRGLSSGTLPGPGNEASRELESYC

B1: triple agonist of SEQ ID NO: 1 (peptide)
peptide: HXQGTFTSDVSSYLDGQAAKEFIAWLVKGC
HELM: PEPTIDE1{H.[Aib].Q.G.T.F.T.S.D.V.S.S.Y.L.D.G.Q.A.A.K.E.F.I.A.W.L.V.K.G.C.[am]}$$$$V2.0; N-terminus assumed
SMILES: CC[C@H](C)[C@H](NC(=O)[C@H](Cc1ccccc1)NC(=O)[C@H](CCC(=O)O)NC(=O)[C@H](CCCCN)NC(=O)[C@H](C)NC(=O)[C@H](C)NC(=O)[C@H](CCC(N)=O)NC(=O)CNC(=O)[C@H](CC(=O)O)NC(=O)[C@H](CC(C)C)NC(=O)[C@H](Cc1ccc(O)cc1)NC(=O)[C@H](CO)NC(=O)[C@H](CO)NC(=O)[C@@H](NC(=O)[C@H](CC(=O)O)NC(=O)[C@H](CO)NC(=O)[C@@H](NC(=O)[C@H](Cc1ccccc1)NC(=O)[C@@H](NC(=O)CNC(=O)[C@H](CCC(N)=O)NC(=O)C(C)(C)NC(=O)[C@@H](N)Cc1c[nH]cn1)[C@@H](C)O)[C@@H](C)O)C(C)C)C(=O)N[C@@H](C)C(=O)N[C@@H](Cc1c[nH]c2ccccc12)C(=O)N[C@@H](CC(C)C)C(=O)N[C@H](C(=O)N[C@@H](CCCCN)C(=O)NCC(=O)N[C@@H](CS)C(N)=O)C(C)C
B2: triple agonist of SEQ ID NO: 4 (peptide)
peptide: B1 peptide with D15L, A18Q, A19Q
HELM: PEPTIDE1{H.[Aib].Q.G.T.F.T.S.D.V.S.S.Y.L.L.G.Q.Q.Q.K.E.F.I.A.W.L.V.K.G.C.[am]}$$$$V2.0; N-terminus assumed
SMILES: CC[C@H](C)[C@H](NC(=O)[C@H](Cc1ccccc1)NC(=O)[C@H](CCC(=O)O)NC(=O)[C@H](CCCCN)NC(=O)[C@H](CCC(N)=O)NC(=O)[C@H](CCC(N)=O)NC(=O)[C@H](CCC(N)=O)NC(=O)CNC(=O)[C@H](CC(C)C)NC(=O)[C@H](CC(C)C)NC(=O)[C@H](Cc1ccc(O)cc1)NC(=O)[C@H](CO)NC(=O)[C@H](CO)NC(=O)[C@@H](NC(=O)[C@H](CC(=O)O)NC(=O)[C@H](CO)NC(=O)[C@@H](NC(=O)[C@H](Cc1ccccc1)NC(=O)[C@@H](NC(=O)CNC(=O)[C@H](CCC(N)=O)NC(=O)C(C)(C)NC(=O)[C@@H](N)Cc1c[nH]cn1)[C@@H](C)O)[C@@H](C)O)C(C)C)C(=O)N[C@@H](C)C(=O)N[C@@H](Cc1c[nH]c2ccccc12)C(=O)N[C@@H](CC(C)C)C(=O)N[C@H](C(=O)N[C@@H](CCCCN)C(=O)NCC(=O)N[C@@H](CS)C(N)=O)C(C)C
B3: triple agonist of SEQ ID NO: 38 (peptide)
peptide: XXQGTFTSDKSSYLDERAAQDFVQWLLDGGPSSGAPPPSS
HELM: PEPTIDE1{[O=C(Cc1c[nH]cn1)[*:2]].[Aib].Q.G.T.F.T.S.D.K.S.S.Y.L.D.E.R.A.A.Q.D.F.V.Q.W.L.L.D.G.G.P.S.S.G.A.P.P.P.S.S.[am]}$$$$V2.0
SMILES: CC(C)C[C@H](NC(=O)[C@H](CC(C)C)NC(=O)[C@H](Cc1c[nH]c2ccccc12)NC(=O)[C@H](CCC(N)=O)NC(=O)[C@@H](NC(=O)[C@H](Cc1ccccc1)NC(=O)[C@H](CC(=O)O)NC(=O)[C@H](CCC(N)=O)NC(=O)[C@H](C)NC(=O)[C@H](C)NC(=O)[C@H](CCCNC(=N)N)NC(=O)[C@H](CCC(=O)O)NC(=O)[C@H](CC(=O)O)NC(=O)[C@H](CC(C)C)NC(=O)[C@H](Cc1ccc(O)cc1)NC(=O)[C@H](CO)NC(=O)[C@H](CO)NC(=O)[C@H](CCCCN)NC(=O)[C@H](CC(=O)O)NC(=O)[C@H](CO)NC(=O)[C@@H](NC(=O)[C@H](Cc1ccccc1)NC(=O)[C@@H](NC(=O)CNC(=O)[C@H](CCC(N)=O)NC(=O)C(C)(C)NC(=O)Cc1c[nH]cn1)[C@@H](C)O)[C@@H](C)O)C(C)C)C(=O)N[C@@H](CC(=O)O)C(=O)NCC(=O)NCC(=O)N1CCC[C@H]1C(=O)N[C@@H](CO)C(=O)N[C@@H](CO)C(=O)NCC(=O)N[C@@H](C)C(=O)N1CCC[C@H]1C(=O)N1CCC[C@H]1C(=O)N1CCC[C@H]1C(=O)N[C@@H](CO)C(=O)N[C@@H](CO)C(N)=O
B4: triple agonist of SEQ ID NO: 39 (peptide)
peptide: HXQGTFTSDYSKYLDGQHAQCFVAWLLAGGGPSSGAPPPS
HELM: PEPTIDE1{H.[Aib].Q.G.T.F.T.S.D.Y.S.K.Y.L.D.G.Q.H.A.Q.C.F.V.A.W.L.L.A.G.G.G.P.S.S.G.A.P.P.P.S.[am]}$$$$V2.0; N-terminus assumed
SMILES: CC(C)C[C@H](NC(=O)[C@H](CC(C)C)NC(=O)[C@H](Cc1c[nH]c2ccccc12)NC(=O)[C@H](C)NC(=O)[C@@H](NC(=O)[C@H](Cc1ccccc1)NC(=O)[C@H](CS)NC(=O)[C@H](CCC(N)=O)NC(=O)[C@H](C)NC(=O)[C@H](Cc1c[nH]cn1)NC(=O)[C@H](CCC(N)=O)NC(=O)CNC(=O)[C@H](CC(=O)O)NC(=O)[C@H](CC(C)C)NC(=O)[C@H](Cc1ccc(O)cc1)NC(=O)[C@H](CCCCN)NC(=O)[C@H](CO)NC(=O)[C@H](Cc1ccc(O)cc1)NC(=O)[C@H](CC(=O)O)NC(=O)[C@H](CO)NC(=O)[C@@H](NC(=O)[C@H](Cc1ccccc1)NC(=O)[C@@H](NC(=O)CNC(=O)[C@H](CCC(N)=O)NC(=O)C(C)(C)NC(=O)[C@@H](N)Cc1c[nH]cn1)[C@@H](C)O)[C@@H](C)O)C(C)C)C(=O)N[C@@H](C)C(=O)NCC(=O)NCC(=O)NCC(=O)N1CCC[C@H]1C(=O)N[C@@H](CO)C(=O)N[C@@H](CO)C(=O)NCC(=O)N[C@@H](C)C(=O)N1CCC[C@H]1C(=O)N1CCC[C@H]1C(=O)N1CCC[C@H]1C(=O)N[C@@H](CO)C(N)=O
B5: triple agonist of SEQ ID NO: 40 (peptide)
peptide: HXQGTFTSDKSKYLDERACQDFVQWLLDGGPSSGAPPPS
HELM: PEPTIDE1{H.[Aib].Q.G.T.F.T.S.D.K.S.K.Y.L.D.E.R.A.C.Q.D.F.V.Q.W.L.L.D.G.G.P.S.S.G.A.P.P.P.S.[am]}$$$$V2.0; N-terminus assumed
SMILES: CC(C)C[C@H](NC(=O)[C@H](CC(C)C)NC(=O)[C@H](Cc1c[nH]c2ccccc12)NC(=O)[C@H](CCC(N)=O)NC(=O)[C@@H](NC(=O)[C@H](Cc1ccccc1)NC(=O)[C@H](CC(=O)O)NC(=O)[C@H](CCC(N)=O)NC(=O)[C@H](CS)NC(=O)[C@H](C)NC(=O)[C@H](CCCNC(=N)N)NC(=O)[C@H](CCC(=O)O)NC(=O)[C@H](CC(=O)O)NC(=O)[C@H](CC(C)C)NC(=O)[C@H](Cc1ccc(O)cc1)NC(=O)[C@H](CCCCN)NC(=O)[C@H](CO)NC(=O)[C@H](CCCCN)NC(=O)[C@H](CC(=O)O)NC(=O)[C@H](CO)NC(=O)[C@@H](NC(=O)[C@H](Cc1ccccc1)NC(=O)[C@@H](NC(=O)CNC(=O)[C@H](CCC(N)=O)NC(=O)C(C)(C)NC(=O)[C@@H](N)Cc1c[nH]cn1)[C@@H](C)O)[C@@H](C)O)C(C)C)C(=O)N[C@@H](CC(=O)O)C(=O)NCC(=O)NCC(=O)N1CCC[C@H]1C(=O)N[C@@H](CO)C(=O)N[C@@H](CO)C(=O)NCC(=O)N[C@@H](C)C(=O)N1CCC[C@H]1C(=O)N1CCC[C@H]1C(=O)N1CCC[C@H]1C(=O)N[C@@H](CO)C(N)=O

biological target: human GLP-1 receptor (human, UniProt P43220 24-463); assay: cell-based or functional assay

Compared with B1, B2 is higher in “in vitro Activity Compared to Native Peptide (%), vs GLP-1” value: 3.2% for the first, 8.5% for the second.

Going from H[Aib]QGTFTSDYSKYLDEKRQKEFVNWLLAQKC (bridge 16-20; not fully specified (C-terminus)) [triple agonist of SEQ ID NO: 34] to H[Aib]QGTFTSDYSIAMDEIHQKDFVNWLLNTKC (bridge 16-20; not fully specified (C-terminus)) [triple agonist of SEQ ID NO: 35], the “in vitro Activity Compared to Native Peptide (%), vs GLP-1” value falls from 19.1% to 7.5%.

Going from H[Aib]QGTFTSDYSKYLCEKRQKEFVQWLLNGGPSSGAPPPSG (bridge 16-20; not fully specified (C-terminus)) [triple agonist of SEQ ID NO: 36] to H[Aib]QGTFTSDYSKYLDECRQKEFVQWLLNGGPSSGAPPPSG (bridge 16-20; not fully specified (C-terminus)) [triple agonist of SEQ ID NO: 37], the “in vitro Activity Compared to Native Peptide (%), vs GLP-1” value rises from 37.4% to 236%.

Going from B3 to B4, the “in vitro Activity Compared to Native Peptide (%), vs GLP-1” value rises from 2.3% to 13.9%.

In the case of B5, the “in vitro Activity Compared to Native Peptide (%), vs GLP-1” value is reported as 75.2%.

biological target: T1, human GIP receptor; assay: cell-based or functional assay

B1 and B2 cannot be ordered by “in vitro Activity Compared to Native Peptide (%), vs GIP” value: under 0.1% for the first, under 0.1% for the second.

Compared with H[Aib]QGTFTSDYSKYLDEKRQKEFVNWLLAQKC (bridge 16-20; not fully specified (C-terminus)) [triple agonist of SEQ ID NO: 34], H[Aib]QGTFTSDYSIAMDEIHQKDFVNWLLNTKC (bridge 16-20; not fully specified (C-terminus)) [triple agonist of SEQ ID NO: 35] is higher in “in vitro Activity Compared to Native Peptide (%), vs GIP” value: 0.6% for the first, 1.3% for the second.

First: H[Aib]QGTFTSDYSKYLCEKRQKEFVQWLLNGGPSSGAPPPSG (bridge 16-20; not fully specified (C-terminus)) [triple agonist of SEQ ID NO: 36]
Second: H[Aib]QGTFTSDYSKYLDECRQKEFVQWLLNGGPSSGAPPPSG (bridge 16-20; not fully specified (C-terminus)) [triple agonist of SEQ ID NO: 37]
The “in vitro Activity Compared to Native Peptide (%), vs GIP” value of the first is lower: 0.2% for the first, 2.2% for the second.

B4 and B5 cannot be ordered by “in vitro Activity Compared to Native Peptide (%), vs GIP” value: under 0.1% for the first, under 0.1% for the second.

biological target: human GCG receptor (human, UniProt P47871 26-477); assay: cell-based or functional assay
Sequence (P47871 26-477): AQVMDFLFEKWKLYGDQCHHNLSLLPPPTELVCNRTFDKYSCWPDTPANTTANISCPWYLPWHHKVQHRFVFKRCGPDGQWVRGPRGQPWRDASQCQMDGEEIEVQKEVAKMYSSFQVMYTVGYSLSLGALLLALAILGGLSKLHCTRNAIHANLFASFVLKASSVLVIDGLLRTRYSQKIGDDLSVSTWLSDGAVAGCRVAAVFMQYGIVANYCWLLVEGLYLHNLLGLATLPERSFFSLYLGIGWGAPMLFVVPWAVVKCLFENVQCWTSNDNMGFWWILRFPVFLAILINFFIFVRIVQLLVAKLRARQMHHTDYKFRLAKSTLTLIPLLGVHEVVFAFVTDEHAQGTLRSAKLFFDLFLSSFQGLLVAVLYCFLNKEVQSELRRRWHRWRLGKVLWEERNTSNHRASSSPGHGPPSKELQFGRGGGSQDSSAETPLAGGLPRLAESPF

B1 and B2 cannot be ordered by “in vitro Activity Compared to Native Peptide (%), vs Glucagon” value: under 0.1% for the first, under 0.1% for the second.

Compared with H[Aib]QGTFTSDYSKYLDEKRQKEFVNWLLAQKC (bridge 16-20; not fully specified (C-terminus)) [triple agonist of SEQ ID NO: 34], H[Aib]QGTFTSDYSIAMDEIHQKDFVNWLLNTKC (bridge 16-20; not fully specified (C-terminus)) [triple agonist of SEQ ID NO: 35] is lower in “in vitro Activity Compared to Native Peptide (%), vs Glucagon” value: 0.92% for the first, under 0.1% for the second.

First: H[Aib]QGTFTSDYSKYLCEKRQKEFVQWLLNGGPSSGAPPPSG (bridge 16-20; not fully specified (C-terminus)) [triple agonist of SEQ ID NO: 36]
Second: H[Aib]QGTFTSDYSKYLDECRQKEFVQWLLNGGPSSGAPPPSG (bridge 16-20; not fully specified (C-terminus)) [triple agonist of SEQ ID NO: 37]
The “in vitro Activity Compared to Native Peptide (%), vs Glucagon” value of the first is lower: 0.39% for the first, 6.21% for the second.

Going from B4 to B5, the “in vitro Activity Compared to Native Peptide (%), vs Glucagon” value falls from 0.53% to under 0.1%.
